Series [1] deals with T1, mini-vRNAP (N4 virion RNA polymerase central domain) (Bacteriophage N4, UniProt Q859P9 SEQ:38-1143).
T1 chain: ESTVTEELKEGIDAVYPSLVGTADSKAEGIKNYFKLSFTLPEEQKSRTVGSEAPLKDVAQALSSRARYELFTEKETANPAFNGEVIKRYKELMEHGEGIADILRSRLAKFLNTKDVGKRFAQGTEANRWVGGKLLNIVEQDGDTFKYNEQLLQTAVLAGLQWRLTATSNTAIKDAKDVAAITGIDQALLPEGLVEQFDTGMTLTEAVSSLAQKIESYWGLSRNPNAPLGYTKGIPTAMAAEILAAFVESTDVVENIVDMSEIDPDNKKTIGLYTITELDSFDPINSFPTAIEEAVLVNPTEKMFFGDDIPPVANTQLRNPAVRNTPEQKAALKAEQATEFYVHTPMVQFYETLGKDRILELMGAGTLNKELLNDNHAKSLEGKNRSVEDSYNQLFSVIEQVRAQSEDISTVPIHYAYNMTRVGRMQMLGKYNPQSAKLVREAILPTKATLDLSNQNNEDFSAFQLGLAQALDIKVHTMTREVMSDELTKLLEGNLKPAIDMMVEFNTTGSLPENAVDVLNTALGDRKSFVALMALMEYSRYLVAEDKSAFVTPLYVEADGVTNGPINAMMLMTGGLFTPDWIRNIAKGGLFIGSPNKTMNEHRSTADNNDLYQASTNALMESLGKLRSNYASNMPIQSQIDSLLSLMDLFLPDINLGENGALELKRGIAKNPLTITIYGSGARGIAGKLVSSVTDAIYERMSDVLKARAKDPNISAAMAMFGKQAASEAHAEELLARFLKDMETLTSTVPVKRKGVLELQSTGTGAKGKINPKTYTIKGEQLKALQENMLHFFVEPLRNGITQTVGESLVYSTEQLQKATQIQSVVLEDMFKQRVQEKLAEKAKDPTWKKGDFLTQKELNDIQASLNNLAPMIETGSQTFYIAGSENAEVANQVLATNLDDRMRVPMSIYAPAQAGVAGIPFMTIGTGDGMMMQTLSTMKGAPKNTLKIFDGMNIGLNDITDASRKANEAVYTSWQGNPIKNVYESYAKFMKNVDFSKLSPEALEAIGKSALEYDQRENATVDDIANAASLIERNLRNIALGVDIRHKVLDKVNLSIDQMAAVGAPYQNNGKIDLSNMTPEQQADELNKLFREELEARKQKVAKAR
Briefly: filter; stem lengthened by two bp, affinity unchanged. Particulars: tags: N-terminal His6 (pBAD B); TALON and MonoQ; hairpin, 7 bp stem.

Series [2] concerns the target T1, mini-vRNAP (N4 virion RNA polymerase …). Briefly: filter; wild type affinity; crosslinks. Particulars: tags: N-terminal His6 (pBAD B); TALON and MonoQ; label: 32P; hairpin. The text has this:
To study the sequence determinants of promoter binding, 20 base-long promoter oligonucleotides, containing the wild type vRNAP promoter P2 sequence and substituted at every position with a single 5-Iodo-dU, were used. Whenever substitutions were made in the stem, the corresponding pairing base was changed to A. These oligonucleotides were ³²P end-labeled and used to determine the enzyme's affinity for promoter DNAs by a filter binding assay and the ability to crosslink to mini-vRNAP upon UV irradiation at 320 nm.

A further series addresses T2, mini-vRNAP Y678F (Bacteriophage N4, UniProt Q859P9 SEQ:38-1143).
T2 chain: T1 chain with Y678F
Briefly: UV crosslinking as well as wild type enzyme. Particulars: tags: N-terminal His6; label: 32P; hairpin.

The target in series [3] is T1, mini-vRNAP (N4 virion RNA polymerase …). In words: filter; two orders of magnitude reduction. Particulars: tags: N-terminal His6 (pBAD B); TALON and MonoQ; hairpin, 8 bp stem.
The target is the same in series [4]. In words: filter; no binding when loop cannot form. Particulars: tags: N-terminal His6 (pBAD B), TALON and MonoQ. The procedure:
(§1) The effect of changes in the stem length of the hairpin on the ability of mini-vRNAP to bind P2 promoter DNA was analyzed. […] The stem can be shortened by two base pairs without change in the binding affinity. […] No binding is observed if one more nucleotide is removed and the loop cannot form.

For series [5], the target named is T3, mini-vRNAP, non-His-tagged (Bacteriophage N4, UniProt Q859P9 SEQ:2-1107).
T3 chain: T1 chain
Briefly: pulldown; DNA-affinity column; lower yield than SEQ 16. Conditions: label: biotin; hairpin. The procedure:
(§2) This property was used for purification of non-his tagged mini-vRNAP (SEQ ID NO:4) on a DNA-affinity column. The column was prepared by adsorbing a 5′ biotinylated N4 promoter-containing DNA oligonucleotide onto the matrix of a 1 ml HiTrap Streptavidin column (Pharmacia/Amersham Cat.#17-5112-01) according to the manufacturer's instructions. A debris-free sonicate of bacterial cells expressing mini-vRNAP was passed through the column. […] Nucleases in the extract are inhibited by addition of 2 mM EDTA. After washing the column, mini-vRNAP was eluted with warm (25° C.) water; the elution temperature was raised from 4° C. to 25° C. to increase mini-vRNAP recovery. For complete elution, the temperature can be raised up to 43° C. without significant change in the quality of the preparation. Elution under these conditions occurs due to the removal of metal ions and consequent melting of the promoter hairpin and dissociation of mini-vRNAP. Different DNA oligonucleotides containing variants of the P2 promoter (SEQ ID NOS:16-19), were used in DNA-affinity columns and tested in mini-vRNAP affinity purification. The best yield was achieved using the DNA oligonucleotide of SEQ ID NO:16. […]

Series [6] has as its target T3, mini-vRNAP, non-His-tagged. In words: pulldown; DNA-affinity column, pH 5-9, 50 mM-2 M NaCl, 2 mM EDTA in extract; best yield. Particulars: label: biotin; hairpin. The procedure: as §2
Series [7] concerns the target T3, mini-vRNAP, non-His-tagged. In words: pulldown; DNA-affinity column; elutes at lower temperature than SEQ 16. Conditions: label: biotin. As to the method: as §2
Series [8] deals with T1, mini-vRNAP (N4 virion RNA polymerase …). In words: filter; range given for two or one remaining loop-closing bp. Conditions: tags: N-terminal His6 (pBAD B), TALON and MonoQ, hairpin. The procedure: as §1
Series [9] shares this target. Briefly: filter; stem shortened by two bp, affinity unchanged. Conditions: tags: N-terminal His6 (pBAD B); TALON and MonoQ; hairpin, 3 bp stem. As to the method: as §1

The text below walks through data of patent US20030096349, “N4 virion single-stranded DNA dependent RNA polymerase” (The University of Chicago, published 2003).

Changes are numbered by the printed parent chain.

As usually defined, the Kd is the equilibrium constant for the complex coming apart. Low values mean tighter binding, high ones weaker binding.

In [1], TCCAAAAGAAGCGGAGCTTCTT (ssDNA, [none]) [P2 stem lengthened to 7 bp] came in with a Kd of roughly 1 nM.
As to TCCAAAAGAAGCGGAGCTTC (ssDNA, 5-iodo-dU at +3) [P2 20-mer 5-iodo-dU at +3], the binding result (in series [2]; with mini-vRNAP Y678F) was “binds” each time.
In turn, TCCAAAAGAAGCGGAGCTTCTTT (ssDNA, [none]) [P2 stem lengthened, base paired to -2] showed a binding signal in series [3] of roughly 100 fold lower affinity.
With TCCAAAAGAAGCGGAGCTTC (ssDNA, 5-iodo-dU at +1) [P2 20-mer 5-iodo-dU at +1], the binding result in series [2] is given as “binds”.
In the case of TCCAAAAGAAGCGGA (ssDNA) [P2 without stem], the binding result in series [4] was “no binding”.
With TCCAAAAGAAGCGGAGCTTC (ssDNA, 5-iodo-dU at -11 (loop centre)) [P2 20-mer 5-iodo-dU at -11], the binding result in the series with mini-vRNAP Y678F is given as “binds”.
For GGATCCAAAAGAAGCGGAGCTTC (ssDNA, 5' biotin) [P2 affinity oligo SEQ 18], the binding result in [5] is “binds”.
As for GGCATTACTTCATCCAAAAGAAGCGGAGCTTC (ssDNA, 5' biotin) [P2 affinity oligo SEQ 16], the binding result in [6] is reported as “binds”.
Turning to GGCATTACTTCATCCAAAAGAAGCTGAGCTTC (ssDNA, 5' biotin) [P2 affinity oligo SEQ 19 (loop/stem variant)], in series [7], the binding result is listed as “binds”.
For the molecule GGCATTACTTCATCCAAAAGAAGCGGAGC (ssDNA, 5' biotin) [P2 affinity oligo SEQ 20 (shortened stem)], the binding result in series [7] is reported as “binds”.
For the molecule TCCAAAAGAAGCGGAGC (ssDNA) [P2 stem shortened to 2 bp], the dissociation constant Kd in series [8] (2 bp stem) came to 4.47 nM.
With TCCAAAAGAAGCGGAGCTTC (ssDNA, 5-iodo-dU at +2) [P2 20-mer 5-iodo-dU at +2], the binding result in series [2] is given as “binds”.
Turning to TCCAAAAGAAGCGGAGCT (ssDNA) [P2 stem shortened to 3 bp], the Kd in [9] was roughly 1 nM.
Consider TCCAAAAGAAGCGGAG (ssDNA) [P2 stem shortened to 1 bp], for which, in series [8] (1 loop-closing bp), the equilibrium dissociation constant (Kd) was 4.47 nM.
Take GGCCATCCATTACTTCATCCAAAAGAAGCGGAGCTTC (ssDNA, 5' biotin) [P2 affinity oligo SEQ 17]: the binding result in series [5] is “binds”.
